From PMC9922296, “Mechanistic insights into RNA surveillance by the canonical poly(A) polymerase Pla1 of the MTREC complex” (Nature Communications, 2023) come the findings set out here.

“And” between values parts separate entries of the source, which are not always exact repeats. Equal entries are not always repeated. No end group written: not given here.

In assay [1] the target is C-terminal RRM domain of Pla1 (Pla1RRM, residues 352-566), purified (S. pombe) (UniProt Q10295). Kind of assay: ITC; MicroCal PEAQ-ITC, 25 °C, 20 mM HEPES pH 7.5, 150 mM NaCl, 2 mM BME; 40-50 µM protein in the cell, 400-500 µM ligand in the syringe; one-binding site model.
Assay [2] concerns the target Biotinylated Iss1 residues 30-76 (S. pombe). Put plainly: BLI; Octet RED96e, 25 °C, 20 mM HEPES pH 7.5, 150 mM NaCl, 2 mM BME, 0.01% Tween-20; biotinylated Red1_(288-345) or Iss1_(30-76) on streptavidin biosensors, 2-fold serial dilution of Pla1FL; global 1:1 fit; apparent.
For assay [3], the target named is T1, Red1 residues 288-345 with Val313 mutated to arginine (S. pombe, UniProt Q9UTR8 288-345, Val313 to an arginine residue).
T1 sequence: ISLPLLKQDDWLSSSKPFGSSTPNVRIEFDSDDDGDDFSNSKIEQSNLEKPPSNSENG
Kind of assay: ITC.

Assay [4] addresses T2, Pla1FL (full-length Pla1, residues 1-566) (S. pombe, UniProt Q10295 1-566).
T2 construct: Pla1, canonical poly(A) polymerase, S. pombe, residues 1-566; the His6 tag is non-cleavable; source: E. coli BL21 (DE3) Rosetta2, purified (His-Trap, Resource Q, Superdex 200); not shown: His6, N-terminal, kept
T2 sequence (looked up): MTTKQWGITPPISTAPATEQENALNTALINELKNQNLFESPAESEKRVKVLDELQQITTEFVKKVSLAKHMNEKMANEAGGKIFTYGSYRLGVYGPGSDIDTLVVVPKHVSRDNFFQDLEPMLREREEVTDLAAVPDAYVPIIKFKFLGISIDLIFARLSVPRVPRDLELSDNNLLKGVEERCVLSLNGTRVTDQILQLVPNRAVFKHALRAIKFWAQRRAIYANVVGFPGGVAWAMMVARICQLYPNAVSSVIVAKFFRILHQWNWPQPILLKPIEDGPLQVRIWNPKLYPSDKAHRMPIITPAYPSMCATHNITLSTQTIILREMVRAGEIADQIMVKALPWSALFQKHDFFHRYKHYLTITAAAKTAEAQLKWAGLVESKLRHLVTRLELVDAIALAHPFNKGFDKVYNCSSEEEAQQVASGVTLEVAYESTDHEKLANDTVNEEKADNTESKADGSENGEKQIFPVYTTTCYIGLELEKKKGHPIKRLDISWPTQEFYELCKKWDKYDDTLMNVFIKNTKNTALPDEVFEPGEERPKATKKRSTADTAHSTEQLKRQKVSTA
Put plainly: BLI; biotinylated Red1 288-345 or Iss1 30-76 immobilised on streptavidin biosensors, 2-fold serial dilution of Pla1FL as analyte; 25 °C; 20 mM HEPES pH 7.5, 150 mM NaCl, 2 mM BME, 0.01% Tween-20; global 1:1 fit. The note with it: both partners purified.

Assay [5] addresses T3, Pla1RRM (C-terminal RRM domain of Pla1, residues 352-566) (S. pombe, UniProt Q10295 352-566).
T3 construct: Pla1, canonical poly(A) polymerase, S. pombe, C-terminal RRM domain, residues 352-566; also called Pla1 RRM domain; Pla1 CTD; source: E. coli BL21 (DE3) Rosetta2, purified (His-Trap, TEV cleavage, Resource Q, Superdex 200); not shown: His6, N-terminal, cleaved
T3 sequence (looked up): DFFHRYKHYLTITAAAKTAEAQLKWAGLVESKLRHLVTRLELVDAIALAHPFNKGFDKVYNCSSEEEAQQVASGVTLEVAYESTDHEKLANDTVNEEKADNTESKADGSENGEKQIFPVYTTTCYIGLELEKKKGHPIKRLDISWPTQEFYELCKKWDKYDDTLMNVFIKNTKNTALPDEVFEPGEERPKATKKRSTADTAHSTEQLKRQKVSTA
Put plainly: ITC; Red1 or Iss1 construct in the syringe (400-500 µM) titrated into Pla1RRM (wild type or mutant) in the cell (40-50 µM); 25 °C; 20 mM HEPES pH 7.5, 150 mM NaCl, 2 mM BME; one-binding site model; each independent measurement listed. The note with it: both partners purified.

Assay [6] addresses T4, C-terminal RRM domain of Pla1 (Pla1RRM, residues 352-566), purified (S. pombe, UniProt Q10295 352-566).
T4 construct: canonical poly(A) polymerase Pla1, S. pombe, C-terminal RRM domain, residues 352-566; also called Pla1 CTD; source: E. coli BL21 (DE3) Rosetta2, purified (His-Trap, TEV cleavage, Resource Q, Superdex 200); not shown: His6, N-terminal, cleaved
T4 sequence (looked up): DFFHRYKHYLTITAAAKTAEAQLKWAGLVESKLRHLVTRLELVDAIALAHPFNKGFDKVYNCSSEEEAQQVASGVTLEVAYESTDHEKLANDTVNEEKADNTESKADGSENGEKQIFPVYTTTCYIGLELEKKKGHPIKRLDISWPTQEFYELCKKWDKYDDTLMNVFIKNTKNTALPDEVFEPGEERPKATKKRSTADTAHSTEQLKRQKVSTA
Kind of assay: ITC; MicroCal PEAQ-ITC, 25 °C, 20 mM HEPES pH 7.5, 150 mM NaCl, 2 mM BME; 40-50 µM protein in the cell, 400-500 µM ligand in the syringe; one-binding site model. The note with it: both partners purified.

Assay [7] addresses T5, Full-length Pla1 (Pla1FL, residues 1-566) with non-cleavable N-terminal His6, purified (S. pombe, UniProt Q10295 1-566).
T5 construct: canonical poly(A) polymerase Pla1, S. pombe, full length, residues 1-566; source: E. coli BL21 (DE3) Rosetta2, purified (His-Trap, Resource Q, Superdex 200); not shown: His6, N-terminal, kept
T5 sequence (looked up): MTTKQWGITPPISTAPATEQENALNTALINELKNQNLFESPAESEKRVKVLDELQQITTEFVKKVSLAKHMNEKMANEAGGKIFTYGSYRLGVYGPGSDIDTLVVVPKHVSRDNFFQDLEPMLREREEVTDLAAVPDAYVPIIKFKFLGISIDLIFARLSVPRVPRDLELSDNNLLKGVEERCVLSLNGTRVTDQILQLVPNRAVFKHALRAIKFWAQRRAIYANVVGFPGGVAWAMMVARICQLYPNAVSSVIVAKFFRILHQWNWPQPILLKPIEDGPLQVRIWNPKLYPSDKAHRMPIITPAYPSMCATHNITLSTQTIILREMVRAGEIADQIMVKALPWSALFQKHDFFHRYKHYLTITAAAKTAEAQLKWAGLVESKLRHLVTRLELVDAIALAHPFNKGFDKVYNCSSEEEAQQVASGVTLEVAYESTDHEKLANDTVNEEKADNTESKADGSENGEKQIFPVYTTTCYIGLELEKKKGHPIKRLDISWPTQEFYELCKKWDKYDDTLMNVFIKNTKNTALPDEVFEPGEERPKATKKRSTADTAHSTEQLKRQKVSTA
Put plainly: BLI; Octet RED96e, 25 °C, 20 mM HEPES pH 7.5, 150 mM NaCl, 2 mM BME, 0.01% Tween-20; biotinylated Red1_(288-345) or Iss1_(30-76) on streptavidin biosensors, 2-fold serial dilution of Pla1FL; global 1:1 fit; apparent. As to conditions: both partners purified.

Assay [8] concerns the target T3, Pla1RRM (C-terminal RRM domain of Pla1, …). Kind of assay: ITC; Red1 or Iss1 construct in the syringe (400-500 µM) titrated into Pla1RRM (wild type or mutant) in the cell (40-50 µM); 25 °C; 20 mM HEPES pH 7.5, 150 mM NaCl, 2 mM BME; one-binding site model; each independent measurement listed. The note with it: both partners purified. This is another data set of the same source.

“Iss1 residues 30-76, purified (domain or fragment)” gave a Kd in assay [1] of 2500 nM.

B1: Full-length Pla1 (Pla1FL, residues 1-566) with non-cleavable N-terminal His6, purified (enzyme)
chain: MTTKQWGITPPISTAPATEQENALNTALINELKNQNLFESPAESEKRVKVLDELQQITTEFVKKVSLAKHMNEKMANEAGGKIFTYGSYRLGVYGPGSDIDTLVVVPKHVSRDNFFQDLEPMLREREEVTDLAAVPDAYVPIIKFKFLGISIDLIFARLSVPRVPRDLELSDNNLLKGVEERCVLSLNGTRVTDQILQLVPNRAVFKHALRAIKFWAQRRAIYANVVGFPGGVAWAMMVARICQLYPNAVSSVIVAKFFRILHQWNWPQPILLKPIEDGPLQVRIWNPKLYPSDKAHRMPIITPAYPSMCATHNITLSTQTIILREMVRAGEIADQIMVKALPWSALFQKHDFFHRYKHYLTITAAAKTAEAQLKWAGLVESKLRHLVTRLELVDAIALAHPFNKGFDKVYNCSSEEEAQQVASGVTLEVAYESTDHEKLANDTVNEEKADNTESKADGSENGEKQIFPVYTTTCYIGLELEKKKGHPIKRLDISWPTQEFYELCKKWDKYDDTLMNVFIKNTKNTALPDEVFEPGEERPKATKKRSTADTAHSTEQLKRQKVSTA
In the case of B1, in assay [2], the Kd is 115 nM, the koff stood at 0.024 s⁻¹ and the kon is 210000 M⁻¹ s⁻¹.

B2: C-terminal RRM domain of Pla1 (Pla1RRM, residues 352-566), purified (domain or fragment)
chain: DFFHRYKHYLTITAAAKTAEAQLKWAGLVESKLRHLVTRLELVDAIALAHPFNKGFDKVYNCSSEEEAQQVASGVTLEVAYESTDHEKLANDTVNEEKADNTESKADGSENGEKQIFPVYTTTCYIGLELEKKKGHPIKRLDISWPTQEFYELCKKWDKYDDTLMNVFIKNTKNTALPDEVFEPGEERPKATKKRSTADTAHSTEQLKRQKVSTA
B2: in assay [3], the Kd turned out to be 17900 nM.

B3: biotinylated Iss1 30-76 (domain or fragment, S. pombe)
chain: VSNAKSPEQASEESDDSDIEFIIETKPGERAEPLGGSIATLGSTRPS
modifications: also: biotin (EZ-Link NHS-PEG4-Biotin), sites not given here
notes: Iss1, S. pombe, residues 30-76; same protein as Dm12, biotinylated for immobilisation on streptavidin biosensors; also called Iss1_(30-76), biotin-labelled; source: E. coli BL21 (DE3) Rosetta2, purified, biotinylated with EZ-Link NHS-PEG4-Biotin; not shown: His-Thioredoxin, N-terminal, cleaved
B3: in assay [4], the koff was 0.0242 s⁻¹.

B4: Red1 288-322 (domain or fragment, S. pombe)
chain: ISLPLLKQDDWLSSSKPFGSSTPNVVIEFDSDDDG
notes: source: E. coli BL21 (DE3), purified (His-Trap, TEV cleavage, second IMAC, Superdex 75); not shown: GB1, N-terminal, cleaved; His6, C-terminal, kept
B4: in assay [5], the Kd is 7300 nM and 8400 nM; the “stoichiometry N” value was 1.31 and 1.3.

B5: Red1 residues 288-322, purified (domain or fragment, S. pombe, UniProt Q9UTR8 288-322, looked up)
chain: ISLPLLKQDDWLSSSKPFGSSTPNVVIEFDSDDDG
notes: as for B4
Take B5: in assay [6], the Kd was found to be 7900 nM.

B6: Red1 residues 288-345 with Val313 mutated to arginine (domain or fragment, S. pombe, UniProt Q9UTR8 288-345, looked up)
chain: ISLPLLKQDDWLSSSKPFGSSTPNVRIEFDSDDDGDDFSNSKIEQSNLEKPPSNSENG
notes: also called V313R; source: E. coli BL21 (DE3), purified; not shown: GB1, N-terminal, cleaved; His6, C-terminal, kept
As to B6, the “fold loss in affinity against wild-type Red1_(288-345)” value in assay [6] is around 13 fold.

B7: Biotinylated Red1 residues 288-345 (domain or fragment, S. pombe, UniProt Q9UTR8 288-345, looked up)
chain: ISLPLLKQDDWLSSSKPFGSSTPNVVIEFDSDDDGDDFSNSKIEQSNLEKPPSNSENG
modifications: also: biotin (EZ-Link NHS-PEG4-Biotin), site not given here
notes: source: E. coli BL21 (DE3), purified, biotinylated; not shown: GB1, N-terminal, cleaved; His6, C-terminal, kept
As to B7, in assay [7], the Kd was 59.2 nM, the off-rate constant (koff) turned out to be 0.016 s⁻¹ and the kon was determined as 280000 M⁻¹ s⁻¹.

B8: biotinylated Red1 288-345 (domain or fragment, S. pombe)
chain: ISLPLLKQDDWLSSSKPFGSSTPNVVIEFDSDDDGDDFSNSKIEQSNLEKPPSNSENG
modifications: also: biotin (EZ-Link NHS-PEG4-Biotin), sites not given here
notes: same protein as Dm2, biotinylated for immobilisation on streptavidin biosensors; source: E. coli BL21 (DE3), purified, biotinylated with EZ-Link NHS-PEG4-Biotin; not shown: GB1, N-terminal, cleaved; His6, C-terminal, kept
In assay [4], B8 returned a koff of 0.0163 s⁻¹ and a kon of 275000 M⁻¹ s⁻¹.

B9: Red1 288-345 N311A (domain or fragment, S. pombe, UniProt Q9UTR8 288-345, looked up)
chain: ISLPLLKQDDWLSSSKPFGSSTPAVVIEFDSDDDGDDFSNSKIEQSNLEKPPSNSENG
notes: also called Red1N311A; source: E. coli BL21 (DE3), purified (His-Trap, TEV cleavage, second IMAC, Superdex 75); not shown: GB1, N-terminal, cleaved; His6, C-terminal, kept
As to B9, in assay [5], the Kd is 770 nM and 1530 nM; the “stoichiometry N” value is 0.99 and 1.05. Further, in assay [8], the Kd came out at 1100 ± 250 nM.

B10: Red1 288-345 S308A (domain or fragment, S. pombe, UniProt Q9UTR8 288-345, looked up)
chain: ISLPLLKQDDWLSSSKPFGSATPNVVIEFDSDDDGDDFSNSKIEQSNLEKPPSNSENG
notes: also called Red1S308A; source: E. coli BL21 (DE3), purified (His-Trap, TEV cleavage, second IMAC, Superdex 75); not shown: GB1, N-terminal, cleaved; His6, C-terminal, kept
In the case of B10, in assay [5], the Kd is 1010 nM and 1450 nM; the “stoichiometry N” value was 1.04 and 1.05. The molecule further yielded a Kd in assay [8] of 1200 ± 300 nM.

B11: Red1 288-345 V313R (domain or fragment, S. pombe, UniProt Q9UTR8 288-345, looked up)
chain: ISLPLLKQDDWLSSSKPFGSSTPNVRIEFDSDDDGDDFSNSKIEQSNLEKPPSNSENG
notes: as for B4
As for B11, in assay [5], the Kd is 15800 nM and 19900 nM; the “stoichiometry N” value is 1.13 and 0.96.
